We go through 17 molecules from US20230279079A1 (published 2023).

Assay [1] concerns the target SARS-CoV-2 spike extracellular domain (SARS-CoV-2, UniProt P0DTC2 14-1213). Briefly: ELISA. Background: ELISA stands for enzyme-linked immunosorbent assay.
Assay [2] deals with SARS-CoV-2 spike receptor binding domain (RBD) (SARS-CoV-2, UniProt P0DTC2 319-541). Briefly: flow.

B1: FD 11C (antibody, V domains shown)
VH: EVQLLESGPGLVKPSETLSLTCTVSGGSISSSSYYWGWIRQPPGKGLEWIGSIYYSGSTYYNPSLKSRVTISVDTSKNQFSLKLSSVTAADTAVYYCAREYYYGSETKKYYYYYGMDVWGQGTTVTVSS
VL: not shown
Turning to B1, the Kd (usually the free concentration of one partner at which half of the binding sites on the other are occupied at equilibrium, for simple one-to-one binding) in assay [1] stood at 0.98 nM.

B2: FD 10A (antibody, V domains shown)
VH: EVQLVESGGGLVQPGGSLRLSCAASGFTFSSYWMHWVRQAPGKGLVWVSRINSDGSSTSYADSVKGRFTISRDNAKNTLYLQMNSLRAEDTAVYYCANMAFDIWGQGTMVTVSS
VL: not shown
In assay [1], B2 displayed a Kd of 0.42 nM.

B3: FI 4A (antibody, V domains shown)
VH: EVQLVESGGGLVKPGGSLRLSCAASGFTFSRFSMNWVRQAPGKGLEWVSSISSSGSYIYFADSVKGRFTISRDNAKNSLYLQMNSLRAEDTAIYYCATYLFGDSHTYWGQGTLVTVSS
VL: QSVLTQPHSVSESPGKTVTISCTGSSGSIASNYVQWYQQRPGSAPTTVIYEDNQRPSGVPDRFSGSIDSSSNSASLTISGLKTEDEADYYCQSYDSSNLHWVFGGGTKLTVL
B3: the Kd in assay [2] amounted to 7.9 nM; in assay [1], 0.41 nM.

B4: FD 8B (antibody, V domains shown)
VH: EVQLLESGAEVKKPGASVKVSCKVSGYTLTELSMHWVRQAPGKGLEWMGGFDPEDGETIYAQKFQGRVTMTEDTSTDTAYMELSSLRSEDTAVYYCATAAAINCSSTSCYYYYYYYGMDVWGQGTTVTVSS
VL: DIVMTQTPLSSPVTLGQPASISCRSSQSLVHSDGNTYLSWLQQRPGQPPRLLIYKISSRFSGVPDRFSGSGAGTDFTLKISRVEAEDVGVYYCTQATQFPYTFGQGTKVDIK
B4 had a Kd in assay [1] of 10.4 nM.

B5: FG 12C (antibody, V domains shown)
VH: EVQLVESGGGLVQPGRSLRLSCAASGFTFDDYAMHWVRQAPGKGLEWVSGISWNSGSIGYADSVKGRFTISRDNAKNSLYLQMNSLRAEDTALYYCAKDMRVHDYGDYYFDYWGQGTLVTVSS
VL: SYELTQPPSVSVAPGKTARITCGGNNIGSKSVHWYQQKPGQAPVLVIYYDSDRPSGIPERFSGSNSGNTATLTISRVEAGDEADYYCQVWDSSSDHPVFGGGTKLTVL
For B5, in assay [1], binding was characterised by a dissociation constant (Kd) of 2.54 nM.

B6: FN 8C (antibody, V domains shown)
VH: QVQLVESGGGVVQPGRSLRLSCAASGFTFSSYGMHWVRQAPGKGLEWVAVISYDGSNKYYADTVKGRFTISRDNSKNTLYLQMNSLRAEDTAVYYCARERTYYDILTGYRHYYGMDVWGQGTTVTVSS
VL: SYELTQPPSVSVAPGQTARITCGGNNIGSKSVHWYQQKPGQAPVLVVYDDSDRPSGIPERFSGSNSGNTATLTISRVEAGDEADYYCQVWDSSSDHWVFGGGTKLTVL
Molecule B6 returned a Kd in assay [1] of 63.9 nM.

B7: FN 12A (antibody, V domains shown)
VH: QVQLVQSGAEVKKPGSSVKVSCKASGGTFSSYAISWVRQAPGQGLEWMGRIIPILGIANYAQKFQGRVTITADKSTSTAYMELSSLRSEDTAVYYCARSGCSSTSCPSNLYYYYYGMDVWGQGTTVTVSS
VL: QSVLTQPPSVSAAPGQKVTISCSGSSSNIGNNYVSWYQQLPGTAPKLLIYDNNKRPSGIPDRFSGSKSGTSATLGITGLQTGDEADYYCGTWDSSLSALVFGGGTKLTVL
Take B7: the values for the Kd in assay [2] and in assay [1] were 1.12 nM and 0.38 nM, respectively.

B8: FM 7B (antibody, V domains shown)
VH: EVQLVQSGAEVKKPGASVKVSCKASGYTFTSYAMHWVRQAPGQRLEWMGWINTGNGNTKYSQKFQGRVTITRDTSASTAYMELSSLRSEDTAVYYCARDPTYCSSTSCYPFSWFDPWGQGTLVTVSS
VL: NFMLTQPPSVSVAPGQTARITCGGNNIGSKSVHWYQQKPGQAPVLVVYDDSDRPSGIPERFSGSNSGNTATLTISRVEAGDEADYYCQVWDSTGDHSWVFGGGTKLTVL
For B8, the Kd amounted to 0.64 nM in assay [2] and 0.51 nM in assay [1].

B9: FD 11D (antibody, V domains shown)
VH: EVQLVESGGGVVQPGRSLRLSCAASGFTFSSYGMHWVRQAPGKGLEWVAVISYDGSNKYYADSVKGRFTISRDNSKNTLYLQMNSLRAEDTAVYYCAKEGAGSGWYRHHKPGYYFDYWGQGTLVTVSS
VL: not shown
In assay [1], B9 yielded a Kd of 3.54 nM. In other words, the single-digit nanomolar range.

B10: FD 7D (antibody, V domains shown)
VH: EVQLVESGAEVKKPGESLRISCKGSGYSFTSYWISWVRQMPGKGLEWMGRIDPSDSYTNYSPSFQGHVTISADKSISTAYLQWSSLKASDTAMYYCARHSDCSSTSCYFVDAFDIWGQGTMVTVSS
VL: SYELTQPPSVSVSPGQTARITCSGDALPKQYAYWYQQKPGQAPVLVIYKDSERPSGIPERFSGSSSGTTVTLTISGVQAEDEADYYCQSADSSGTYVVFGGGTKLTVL
On to B10, for which binding in assay [1] was put at a Kd of 64 nM.

B11: FJ 1C (antibody, V domains shown)
VH: QVQLQESGPGLVKPSETLSLTCTVSGYSISSGYYWGWIRQPPGKGLEWIGSIYHSGSTYYNPSLKSRVTISVDTSKNQFSLKLSSVTAADTAVYYCARDKALLWFGELFTNLFDYWGQGTLVTVSS
VL: QSALTQPASVSGSPGQSITISCTGTSSDVGGYNYVSWYQQHPGKAPKLMIYEVSNRPSGVSNRFSGSKSGNTASLTISGLQAEDEANYYCSSYTSSSTLVFGGGTKLTVL
The molecule B11 gave a Kd in assay [1] of 0.57 nM.

B12: FD 1E (antibody, V domains shown)
VH: EVQLLESGGGLVKPGGSLRLSCAASGFTFSSYSMNWVRQAPGKGLEWVSSISSSSSYIYYADSVKGRFTISRDNAKNSLYLQMNSLRAEDTAVYYCASLAAAGPETYYYYGMDVWGQGTMVTVSS
VL: not shown
B12 showed a Kd in assay [1] of 20.5 nM.

B13: FD 11E (antibody, V domains shown)
VH: EVQLVESGGGLVKPGGSLRLSCAASGFTFSSYSMNWVRQAPGKGLEWVSSISSSSSYIYYADSVKGRFTISRDNAKNSLYLQMNSLRAEDTAVYYCASLAAAGPETYYYYGMDVWGQGTMVTVSS
VL: not shown
Molecule B13 showed a Kd in assay [1] of 19.5 nM.

B14: FD 7C (antibody, V domains shown)
VH: QLQLQESGPGLVKPSETLSLTCTVSGGSISSYYWSWIRQPPGKGLEWIGYIYYSGSTNYNPSLKSRVTISVDTSKNQFSLKLSSVTAADTAVYYCARDYRFGELFGRFAWFDPWGQGTLVTVSS
VL: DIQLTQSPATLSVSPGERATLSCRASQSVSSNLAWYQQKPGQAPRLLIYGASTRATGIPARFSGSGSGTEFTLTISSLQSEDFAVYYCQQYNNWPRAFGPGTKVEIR
As to B14, in assay [1], the affinity, expressed as Kd, was 0.18 nM.

B15: FN 2C (antibody, V domains shown)
VH: EVQLLESGGGVVQPGRSLRLSCAASGFNFNNYGMHWVRQAPGKGLEWVATISYEGSKKFYVDSVKGRFTISKDNSKNTLYLQMNSLRVDDTAFYYCAKRREIFWLGEPPLSDAFDFWGQGTMVTVSS
VL: QSVLTQPPSVSGAPGQRVTISCTGSGSNIGAGYDVHWYQFLPGTAPQLLIYGNNNRPSGVPDRFSGSKSGTSASLAITGLQAEDEADYYCQSYDSSLSGSVFGGGTKLTVL
B15: in assay [1], the Kd was determined as 0.3 nM.

B16: FB 1E (antibody, V domains shown)
VH: EVQLVESGAEVKKPGESLKISCQGSGYRFNSYWIAWVRQMPGKGLEWMGSIFPTDSDIRYNPSFQGQVTISADKSISIAYLQWSSLKASDTAIYYCARHWASMVRGVIRASHYYGMDVWGQGTTVTVSS
VL: QSVLTQPPSASGSPGQSVTISCSGASSDIGDYNYVSWYQQLPGKAPKLLIYEVTKRPSGVPDRFSGSKSGNTASLTVSGLQADDEADYYCSSYAFGGSDIRVFGGGTKLAVL
Molecule B16 came in with a Kd in assay [1] of 0.41 nM. This Kd and that of the molecule before are within 1.5-fold of each other.

B17: FB 9D (antibody, V domains shown)
VH: QVQLVESGAEVKKPGESLKISCQGSGYRFNSYWIAWVRQMPGKGLEWMGSIFPTDSDVRYNPSFQGQVTISADKSISFAYLQWSSLKASDTAIYYCARHWASMVRGVIRASHYYGMDVWGQGTTVTVSS
VL: QPVLTQPPSASGSPGQSVTISCSGASSDIGKYNYVSWYQQLPGKAPKLLIYEVTKRPSGVPDRFSGSKSGNTASLTVSGLQADDEADYYCSSYAFGGSDTRVFGGGTKLTVL
As for B17, binding in assay [1] was put at a Kd of 0.29 nM.
